According to patent publication US20250152742A1, “COMPOSITIONS AND METHODS FOR NEUROLOGICAL DISEASES” (Trames Bio, Inc., priority 2022, published 2025):

Test system: engineered chimeric receptor SEQ ID NO: 33 and its mutants (human α7-nAChR ligand binding domain / human GlyRα1 ion pore domain) in Lenti-X 293T cells
Test: YFP fluorescence quenching anion reporter plate reader assay (percent quench, EC50)
Assay type: cell-based
Conditions: for YFP fluorescence quenching using CNL001 (percent quench): receptor named in row; for YFP fluorescence quenching using Varenicline, 3 nM var: ligand Varenicline 3 nM; for YFP fluorescence quenching using Varenicline, 30 nM var: ligand Varenicline 30 nM; for YFP fluorescence quenching using Varenicline, 300 nM var: ligand Varenicline 300 nM; for YFP fluorescence quenching using Varenicline, 500 nM var: ligand Varenicline 500 nM; for YFP fluorescence quenching using Varenicline, 1 uM var: ligand Varenicline 1 uM
Text: To screen these mutant LGICs for those having novel response profiles to ligands, an anion reporter assay was developed to assess the function of the LGICs in a high throughput format. In this assay, cells expressing a YFP reporter whose fluorescence is quenched in the presence of anion are transfected with DNA encoding the channel of interest. Upon exposure to ligand, channels that are activated will flux anion, resulting in a dose-dependent quench of the YFP that can be detected on a plate reader. The greater the quench signal (i.e., the more positive the value), the higher the ligand activity on the receptor is.
Lenti-X 293T cells (LX293T, Clontech) were maintained in DMEM containing 10% FBS and 1% penicillin/streptomycin (Invitrogen). […] Two days before assay, cells were split at a density of 20,000 cells/well in a 96-well tissue culture plate coated with poly-d lysine (Thermo Scientific). The next day, the cells were transiently transfected with 0.1 μg of DNA per well using standard Fugene protocol (Promega). On the day of assay, cells were washed 2 times in 1X extracellular solution (1X ECS: 140 mM NaCl, 5 mM KCl, 1 mM MgCl2, 2 mM CaCl2, 10 mM HEPES, 10 mM glucose, pH 7.2, mOsms 300). After the last wash, 100 μL of 1X ECS was added to the wells and the plate was incubated at 37° C. for 30 min. While incubating the plate, the drugs were diluted to a 2X concentration in 1X ECS-Nal (same components as 1X ECS except the 140 mM NaCl was replaced by 140 mM Nal). The plates were then read on a Flexstation3 (Molecular Devices). Each well, 8 wells at a time, of the plate is read for 2 min using a Flexstation3 (Molecular Devices) as follows: 1) a baseline YFP fluorescence is read for 17 sec, 2) 100 μL of ligand is added, and 3) the changes in YFP fluorescence are then measured every 1.3 sec for 1 minute and 43 seconds. The percent quench is calculated from the average fluorescence of the last 10 seconds of the read divided by the baseline average of the first 15 seconds prior to the ligand addition.
FIGS. 1A-1J provide heat maps of the percent quench of YFP fluorescence following stimulation by various doses of either acetylcholine or the non-native ligand as indicated in the Figures. CODA71 (SEQ ID NO: 33) was used as a control, and CODA75 (SEQ ID NO: 29, a non-responding chimeric engineered receptor) was used as the negative control. Quenching of the fluorescence signal, as indicated by blue shaded cells, indicate the level of engineered receptor activation by the non-native ligand at that concentration.

B1: CODA236: engineered receptor: R101F in SEQ ID NO: 33 (protein)
chain: MRCSPGGVWLALAASLLHVSLQGEFQRKLYKELVKNYNPLERPVANDSQPLTVYFSLSLLQIMDVDEKNQVLTTNIWLQMSWTDHYLQWNVSEYPGVKTVFFPDGQIWKPDILLYNSADERFDATFHTNVLVNSSGHCQYLPPGIFKSSCPMDLKNFPMDVQTCKLKFGSWSYGGWSLDLQMQEADISGYIPNGEWDLVGIPGKRSERFYECCKEPYPDVTFTVTMRRRMGYYLIQMYIPSLLIVILSWISFWINMDAAPARVGLGITTVLTMTTQSSGSRASLPKVSYVKAIDIWMAVCLLFVFSALLEYAAVNFVSRQHKELLRFRRKRRHHKSPMLNLFQEDEAGEGRFNFSAYGMGPACLQAKDGISVKGANNSNTTNPPPAPSKSPEEMRKLFIQRAKKIDKISRIGFPMAFLIFNMFYWIIYKIVRREDVHNQ
modifications: synthetic sequence of chimeric LGIC
YFP fluorescence quenching using CNL001 (percent quench) (1 nM CNL001, first column so headed): 9.048%
YFP fluorescence quenching using CNL001 (percent quench) (1 nM CNL001, second column so headed): 26.601%
YFP fluorescence quenching using TC-5619/Bradanicline (percent quench) (3 nM brd (TC-5619/Bradanicline)): 49.33%
YFP fluorescence quenching using CNL001 (percent quench) (10 nM CNL001, first column so headed): 71.533%
YFP fluorescence quenching using CNL001 (percent quench) (10 nM CNL001, second column so headed): 72.948%
YFP fluorescence quenching using TC-5619/Bradanicline (percent quench) (30 nM brd (TC-5619/Bradanicline)): 77.38%
YFP fluorescence quenching using CNL001 (percent quench) (50 nM CNL001, first column so headed): 75.895%
YFP fluorescence quenching using CNL001 (percent quench) (50 nM CNL001, second column so headed): 74.238%
YFP fluorescence quenching using ABT-126 (percent quench) (50 nM abt (ABT-126)): −18.69%
YFP fluorescence quenching using CNL001 (percent quench) (100 nM CNL001, first column so headed): 76%
YFP fluorescence quenching using CNL001 (percent quench) (100 nM CNL001, second column so headed): 75.861%
YFP fluorescence quenching (percent quench) (100 nM CNL002): −9.56%
YFP fluorescence quenching using ABT-126 (percent quench) (100 nM abt (ABT-126)): −23.01%
YFP fluorescence quenching using AZD-0328 (percent quench) (100 nM azd0328): −9.78%
YFP fluorescence quenching using ABT-126 (percent quench) (300 nM abt (ABT-126)): −20.92%
YFP fluorescence quenching using AZD-0328 (percent quench) (300 nM azd0328): 49.64%
YFP fluorescence quenching using TC-5619/Bradanicline (percent quench) (300 nM brd (TC-5619/Bradanicline)): 77.51%
YFP fluorescence quenching using CNL001 (percent quench) (1 uM CNL001, first column so headed): 76.367%
YFP fluorescence quenching using CNL001 (percent quench) (1 uM CNL001, second column so headed): 76.162%
YFP fluorescence quenching (percent quench) (1 uM CNL002): 56.9%
YFP fluorescence quenching using ABT-126 (percent quench) (1 uM abt (ABT-126)): 4.99%
YFP fluorescence quenching (percent quench) (10 uM ach (acetylcholine)): −18.24%
YFP fluorescence quenching (percent quench) (30 uM CNL002): 70.28%
YFP fluorescence quenching using AZD-0328 (percent quench) (30 uM azd0328): 81.14%
YFP fluorescence quenching (percent quench) (100 uM ach (acetylcholine)): 60%
YFP fluorescence quenching (percent quench) (1 mM ach (acetylcholine)): 66.07%
YFP fluorescence quenching (percent quench) (3 mM ach (acetylcholine)): 71.38%
YFP fluorescence quenching using Facinicline, 30 nM fac (ligand Facinicline 30 nM): −28.54
YFP fluorescence quenching using Facinicline, 300 nM fac (ligand Facinicline 300 nM): 72.98
YFP fluorescence quenching using Facinicline, 30 uM fac (ligand Facinicline 30 uM): 87.6
YFP fluorescence quenching using TC-6987, 1 uM tc6987 (ligand TC-6987 1 uM): 45.34
YFP fluorescence quenching using TC-6987, 10 uM tc6987 (ligand TC-6987 10 uM): 70.04
YFP fluorescence quenching using TC-6987, 500 uM tc6987 (ligand TC-6987 500 uM): 75.86
YFP fluorescence quenching using Varenicline, 3 nM var (first column): 19.949
YFP fluorescence quenching using Varenicline, 3 nM var (second column): 22.334
YFP fluorescence quenching using Varenicline, 30 nM var (first column): 15.764
YFP fluorescence quenching using Varenicline, 30 nM var (second column): 16.213
YFP fluorescence quenching using Varenicline, 300 nM var (first column): 23.135
YFP fluorescence quenching using Varenicline, 300 nM var (second column): 22.987
YFP fluorescence quenching using Varenicline, 500 nM var (first column): 35.048
YFP fluorescence quenching using Varenicline, 500 nM var (second column): 34.188
YFP fluorescence quenching using Varenicline, 1 uM var (first column): 71.031
YFP fluorescence quenching using Varenicline, 1 uM var (second column): 71.005
